Data on 1 substance can be found in US20210221894A1.

In this assay the target is recombinant human DLL3 (ELISA coat) (human) (UniProt Q9NYJ7). Nature of the assay: ELISA, plate coated with recombinant human DLL3 0.5 µg/ml; commercial reagent mAb.

The term EC50 denotes the concentration at which the effect is half-maximal.

Sequence of recombinant human DLL3 (ELISA coat) (human) (Q9NYJ7 27-492 limits assumed): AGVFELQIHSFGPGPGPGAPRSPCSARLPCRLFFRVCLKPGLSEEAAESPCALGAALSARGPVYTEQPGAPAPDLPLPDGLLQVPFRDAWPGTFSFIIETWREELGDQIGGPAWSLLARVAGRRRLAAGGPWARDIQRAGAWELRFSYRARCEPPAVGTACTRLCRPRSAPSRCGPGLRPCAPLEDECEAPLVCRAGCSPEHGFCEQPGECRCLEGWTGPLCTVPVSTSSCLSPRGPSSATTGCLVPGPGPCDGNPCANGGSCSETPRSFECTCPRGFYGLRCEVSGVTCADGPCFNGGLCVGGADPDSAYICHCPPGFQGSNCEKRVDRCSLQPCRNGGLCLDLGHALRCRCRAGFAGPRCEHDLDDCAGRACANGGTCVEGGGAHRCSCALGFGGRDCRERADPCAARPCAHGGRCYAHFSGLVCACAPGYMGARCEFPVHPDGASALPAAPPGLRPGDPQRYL

As for “positive control antibody for DLL3 (R&D Systems, Minneapolis, Minn., Cat #MAB4315)”, the EC50 was 0.1 nM.
